Target: antiserum 98192
Assay: RIA, displacement of 125I-proBNP 1-10Tyr tracer from antiserum 98192

Row | ratio of median inhibitory dose (ID50) | Binder
1 | 0.001 | PLGSPGSASDLETSGLQEQR [N-terminal truncated fragment of human proBNP 1-21 with the N-terminal histidine removed]
2 | 0.0006 | LGSPGSASDLETSGLQEQR
